Test results published in PMC3315506, “A Single Gene Target of an ETS-Family Transcription Factor Determines Neuronal CO2-Chemosensitivity”.

T1: GST::ETS-5 (Caenorhabditis elegans, UniProt Q18579 1-208)
T1 sequence: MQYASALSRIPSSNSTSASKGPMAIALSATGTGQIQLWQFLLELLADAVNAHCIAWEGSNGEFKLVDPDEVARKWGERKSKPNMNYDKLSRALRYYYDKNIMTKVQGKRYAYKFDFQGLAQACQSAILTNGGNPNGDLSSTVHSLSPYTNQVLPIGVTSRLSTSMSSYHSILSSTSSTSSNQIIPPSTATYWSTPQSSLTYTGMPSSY

B1: scrambled competitor (dsDNA)
DNA 1: CTGACCCCGTGTCGCTAATAGACTCAGTTACGCAAGATGG
DNA 2: CCATCTTGCGTAACTGAGTCTATTAGCGACACGGGGTCAG
B2: gcy-9 promoter ETS-site probe (45 bp) (dsDNA)
DNA 1: ATCCACTTCCGATGGGCCCTTCCGGCATGATAAGAAGTGAGTGGC
DNA 2: GCCACTCACTTCTTATCATGCCGGAAGGGCCCATCGGAAGTGGAT

What was measured:
GST::ETS-5 [1] = target: T1, GST::ETS-5; assay: competition; scrambled competitor 10-500x molar excess over labeled N1; did not block; EMSA: 1 ug GST::ETS-5 or 2 ug GST, 0.1 pmol 3'-biotin duplex, room temperature 20 min, 6% polyacrylamide gel in 0.5x TBE; binding buffer, salt and pH not stated; settings: protein: recombinant; tags: N-terminal GST (pGEX); label: unlabeled; blunt
GST::ETS-5 [2] = target: T1, GST::ETS-5; assay: EMSA; also blocked by excess unlabeled probe (10-500x); EMSA: 1 ug GST::ETS-5 or 2 ug GST, 0.1 pmol 3'-biotin duplex, room temperature 20 min, 6% polyacrylamide gel in 0.5x TBE; binding buffer, salt and pH not stated; settings: protein: recombinant; tags: N-terminal GST (pGEX); label: 3'-biotin (labeled probe); blunt

| Binder | binding result (GST::ETS-5 [1]) | binding result (GST::ETS-5 [2]) |
| --- | --- | --- |
| B1 | no binding |  |
| B2 |  | binds |
